The values that follow come from patent US20140296131A1 (Novo Nordisk, published 2014).

Assay [1] has as its target isolated N-terminal extracellular domain of the GLP-1 receptor (nGLP-1R) (UniProt P43220). Briefly: SPA competition: displacement of 125I-Exendin-4(9-39) from nGLP-1R.
Assay [2] concerns the target T1, human GLP-1 receptor (human, UniProt P43220 24-463). The assay is described as follows: cell-based or functional assay.
The target of assay [3] is T2, isolated N-terminal extracellular domain of the GLP-1 receptor (nGLP-1R) (UniProt P43220 24-145, limits assumed, biotinylated with BNHS, immobilized on streptavidin-coated SPA beads).
T2 construct: extracellular domain; also called N-terminal GLP-1 receptor
Briefly: SPA competition: displacement of 125I-Exendin-4(9-39) from biotinylated nGLP-1R on streptavidin SPA beads. On the procedure:
The nGLP1R in 0.1M NaHCO₃ was biotinylated using 75 μg BNHS (Sigma H1759) to 1 mg protein. The biotinylated nGLP1R was subsequently dialyzed against PBS. All reagents and derivatives were diluted in PBS with 0.05% v/v Tween 20. […] The plates were incubated on a shaker at RT for 3 hours. The SPA particles were spun down by centrifugation for 10 min at 1500 rpm and the plates were counted in a TopCount-NXT (PerkinElmer).

Assay [4] has as its target T1, human GLP-1 receptor. Briefly: SPA competition: displacement of 125I-GLP-1 from BHK tk-ts13 membranes with the human GLP-1 receptor. The protocol:
Test compounds/peptides, membranes, SPA-particles and [¹²⁵I] are diluted in assay buffer. 25 ul (micro liter) of test compounds/peptides are added to Optiplate. Buffer is added (50 ul). Add 5-10 ug protein/sample (50 ul) corresponding to 0.1-0.2 mg protein/ml (to be preferably optimised for each membrane preparation). Add SPA-particles (Wheatgerm agglutinin SPA beads) RPNQ 0001) 0.5 mg/well (50 ul). […] The plates are sealed with PlateSealer. Incubate for 120 minutes at 30° C. while shaking. The plates are centrifuged (1500 rpm, 10 min) and counted in Topcounter.

Where no end group is shown, it is not given here. [ ]: non-standard residue; d: D form. Aib = CC(C)(N)C(=O)O

In turn, liraglutide (peptide) displayed an IC50 in assay [1] of 1500 nM. This lies in the single-digit micromolar range.

B1: [Aib8, Lys20, Glu22, Val25, Arg26, Glu30] GLP-1 (7-33) Amide (peptide)
peptide: H[Aib]EGTFTSDVSSYKEEQAVREFIEWLV-NH2
modifications: N-terminus assumed
SMILES: CC[C@H](C)[C@H](NC(=O)[C@H](Cc1ccccc1)NC(=O)[C@H](CCC(=O)O)NC(=O)[C@H](CCCNC(=N)N)NC(=O)[C@@H](NC(=O)[C@H](C)NC(=O)[C@H](CCC(N)=O)NC(=O)[C@H](CCC(=O)O)NC(=O)[C@H](CCC(=O)O)NC(=O)[C@H](CCCCN)NC(=O)[C@H](Cc1ccc(O)cc1)NC(=O)[C@H](CO)NC(=O)[C@H](CO)NC(=O)[C@@H](NC(=O)[C@H](CC(=O)O)NC(=O)[C@H](CO)NC(=O)[C@@H](NC(=O)[C@H](Cc1ccccc1)NC(=O)[C@@H](NC(=O)CNC(=O)[C@H](CCC(=O)O)NC(=O)C(C)(C)NC(=O)[C@@H](N)Cc1c[nH]cn1)[C@@H](C)O)[C@@H](C)O)C(C)C)C(C)C)C(=O)N[C@@H](CCC(=O)O)C(=O)N[C@@H](Cc1c[nH]c2ccccc12)C(=O)N[C@@H](CC(C)C)C(=O)N[C@H](C(N)=O)C(C)C
B1: in the assay with human GLP-1 receptor [2], the “EC50 (potency, stimulation of cAMP formation)” value (shortened to “EC50”) is less than 0.3 nM.

Turning to HAEGTFTSDVSSYLEEQAAREFIAWLV-OH [[Glu22, Arg26]GLP-1(7-33)peptide], the “EC50” value with human GLP-1 receptor [2] is less than 0.3 nM.

On to HAEGTFTSDVSSYLEEQAAREFIAWLV-NH2 [[Glu22, Arg26]GLP-1 (7-33) Amide], for which the “EC50” value in the assay with human GLP-1 receptor [2] is less than 0.3 nM.

B2: truncated natural, human GLP-1(7-33) (peptide)
peptide: HAEGTFTSDVSSYLEGQAAKEFIAWLV
modifications: ends and bridges not checked
notes: also called truncated natural GLP-1; truncated natural GLP-1(7-3)) peptide
Turning to B2, the IC50 came out at 886 nM in assay [3] and 241 nM in the assay with human GLP-1 receptor [4]. In addition, the “EC50” value with human GLP-1 receptor [2] turned out to be 11.3 nM.

HAEGTFTSDVSSYLEEQAVREFIAWLV-NH2 [[Glu22, Val25, Arg26] GLP-1 (7-33)amide]: the “EC50” value in the assay with human GLP-1 receptor [2] was less than 0.3 nM.
